# Biological target: the molecule itself
# Experiment: crystal structure
row,Protein,binding result
1,"S128A S. enterica siroheme synthase (CysG) (enzyme, also called S128A-CysG; source: E. coli LMG194 (pBAD vector), purified (Ni-NTA, anion-exchange, size exclusion chromatography)) MDHLPIFCQLRDRDCLIVGGGDVAERKARLLLEAGARLTVNALTFIPQFTVWANEGMLTLVEGPFDETLLDSCWLAIAATDDDTVNQRVSDAAESRRIFCNVVDAPKAASFIMPSIIDRSPLMVAVSAGGTSPVLARLLREKLESLLPQHLGQVARYAGQLRARVKKQFATMGERRRFWEKFFVNDRLAQSLANADEKAVNATTERLFSEPLDHRGEVVLVGAGPGDAGLLTLKGLQQIQQADIVVYDRLVSDDIMNLVRRDADRVFVGKRAGYHCVPQEEINQILLREAQKGKRVVRLKGGDPFIFGRGGEELETLCHAGIPFSVVPGITAASGCSAYSGIPLTHRDYAQSVRLVTGHLKTGGELDWENLAAEKQTLVFYMGLNQAATIQEKLIAFGMQADMPVALVENGTSVKQRVVHGVLTQLGELAQQVESPALIIVGRVVALRDKLNWFSNH",binds
2,"R260A/S128A CysG (enzyme, source: E. coli LMG194 (pBAD vector), purified (Ni-NTA, anion-exchange, size exclusion chromatography)) MDHLPIFCQLRDRDCLIVGGGDVAERKARLLLEAGARLTVNALTFIPQFTVWANEGMLTLVEGPFDETLLDSCWLAIAATDDDTVNQRVSDAAESRRIFCNVVDAPKAASFIMPSIIDRSPLMVAVSAGGTSPVLARLLREKLESLLPQHLGQVARYAGQLRARVKKQFATMGERRRFWEKFFVNDRLAQSLANADEKAVNATTERLFSEPLDHRGEVVLVGAGPGDAGLLTLKGLQQIQQADIVVYDRLVSDDIMNLVARDADRVFVGKRAGYHCVPQEEINQILLREAQKGKRVVRLKGGDPFIFGRGGEELETLCHAGIPFSVVPGITAASGCSAYSGIPLTHRDYAQSVRLVTGHLKTGGELDWENLAAEKQTLVFYMGLNQAATIQEKLIAFGMQADMPVALVENGTSVKQRVVHGVLTQLGELAQQVESPALIIVGRVVALRDKLNWFSNH",binds
3,"D262A/S128A CysG (enzyme, source: E. coli LMG194 (pBAD vector), purified (Ni-NTA, anion-exchange, size exclusion chromatography)) MDHLPIFCQLRDRDCLIVGGGDVAERKARLLLEAGARLTVNALTFIPQFTVWANEGMLTLVEGPFDETLLDSCWLAIAATDDDTVNQRVSDAAESRRIFCNVVDAPKAASFIMPSIIDRSPLMVAVSAGGTSPVLARLLREKLESLLPQHLGQVARYAGQLRARVKKQFATMGERRRFWEKFFVNDRLAQSLANADEKAVNATTERLFSEPLDHRGEVVLVGAGPGDAGLLTLKGLQQIQQADIVVYDRLVSDDIMNLVRRAADRVFVGKRAGYHCVPQEEINQILLREAQKGKRVVRLKGGDPFIFGRGGEELETLCHAGIPFSVVPGITAASGCSAYSGIPLTHRDYAQSVRLVTGHLKTGGELDWENLAAEKQTLVFYMGLNQAATIQEKLIAFGMQADMPVALVENGTSVKQRVVHGVLTQLGELAQQVESPALIIVGRVVALRDKLNWFSNH",binds
4,"D262N/S128A CysG (enzyme, source: E. coli LMG194 (pBAD vector), purified (Ni-NTA, anion-exchange, size exclusion chromatography)) MDHLPIFCQLRDRDCLIVGGGDVAERKARLLLEAGARLTVNALTFIPQFTVWANEGMLTLVEGPFDETLLDSCWLAIAATDDDTVNQRVSDAAESRRIFCNVVDAPKAASFIMPSIIDRSPLMVAVSAGGTSPVLARLLREKLESLLPQHLGQVARYAGQLRARVKKQFATMGERRRFWEKFFVNDRLAQSLANADEKAVNATTERLFSEPLDHRGEVVLVGAGPGDAGLLTLKGLQQIQQADIVVYDRLVSDDIMNLVRRNADRVFVGKRAGYHCVPQEEINQILLREAQKGKRVVRLKGGDPFIFGRGGEELETLCHAGIPFSVVPGITAASGCSAYSGIPLTHRDYAQSVRLVTGHLKTGGELDWENLAAEKQTLVFYMGLNQAATIQEKLIAFGMQADMPVALVENGTSVKQRVVHGVLTQLGELAQQVESPALIIVGRVVALRDKLNWFSNH",binds
5,"D104A/S128A CysG (enzyme, source: E. coli LMG194 (pBAD vector), purified (Ni-NTA, anion-exchange, size exclusion chromatography)) MDHLPIFCQLRDRDCLIVGGGDVAERKARLLLEAGARLTVNALTFIPQFTVWANEGMLTLVEGPFDETLLDSCWLAIAATDDDTVNQRVSDAAESRRIFCNVVAAPKAASFIMPSIIDRSPLMVAVSAGGTSPVLARLLREKLESLLPQHLGQVARYAGQLRARVKKQFATMGERRRFWEKFFVNDRLAQSLANADEKAVNATTERLFSEPLDHRGEVVLVGAGPGDAGLLTLKGLQQIQQADIVVYDRLVSDDIMNLVRRDADRVFVGKRAGYHCVPQEEINQILLREAQKGKRVVRLKGGDPFIFGRGGEELETLCHAGIPFSVVPGITAASGCSAYSGIPLTHRDYAQSVRLVTGHLKTGGELDWENLAAEKQTLVFYMGLNQAATIQEKLIAFGMQADMPVALVENGTSVKQRVVHGVLTQLGELAQQVESPALIIVGRVVALRDKLNWFSNH",binds
6,"P133H/S128A CysG (enzyme, source: E. coli LMG194 (pBAD vector), purified (Ni-NTA, anion-exchange, size exclusion chromatography)) MDHLPIFCQLRDRDCLIVGGGDVAERKARLLLEAGARLTVNALTFIPQFTVWANEGMLTLVEGPFDETLLDSCWLAIAATDDDTVNQRVSDAAESRRIFCNVVDAPKAASFIMPSIIDRSPLMVAVSAGGTSHVLARLLREKLESLLPQHLGQVARYAGQLRARVKKQFATMGERRRFWEKFFVNDRLAQSLANADEKAVNATTERLFSEPLDHRGEVVLVGAGPGDAGLLTLKGLQQIQQADIVVYDRLVSDDIMNLVRRDADRVFVGKRAGYHCVPQEEINQILLREAQKGKRVVRLKGGDPFIFGRGGEELETLCHAGIPFSVVPGITAASGCSAYSGIPLTHRDYAQSVRLVTGHLKTGGELDWENLAAEKQTLVFYMGLNQAATIQEKLIAFGMQADMPVALVENGTSVKQRVVHGVLTQLGELAQQVESPALIIVGRVVALRDKLNWFSNH",binds
7,"D104N/S128A CysG (enzyme, source: E. coli LMG194 (pBAD vector), purified (Ni-NTA, anion-exchange, size exclusion chromatography)) MDHLPIFCQLRDRDCLIVGGGDVAERKARLLLEAGARLTVNALTFIPQFTVWANEGMLTLVEGPFDETLLDSCWLAIAATDDDTVNQRVSDAAESRRIFCNVVNAPKAASFIMPSIIDRSPLMVAVSAGGTSPVLARLLREKLESLLPQHLGQVARYAGQLRARVKKQFATMGERRRFWEKFFVNDRLAQSLANADEKAVNATTERLFSEPLDHRGEVVLVGAGPGDAGLLTLKGLQQIQQADIVVYDRLVSDDIMNLVRRDADRVFVGKRAGYHCVPQEEINQILLREAQKGKRVVRLKGGDPFIFGRGGEELETLCHAGIPFSVVPGITAASGCSAYSGIPLTHRDYAQSVRLVTGHLKTGGELDWENLAAEKQTLVFYMGLNQAATIQEKLIAFGMQADMPVALVENGTSVKQRVVHGVLTQLGELAQQVESPALIIVGRVVALRDKLNWFSNH",binds
8,"R261A/S128A CysG (enzyme, source: E. coli LMG194 (pBAD vector), purified (Ni-NTA, anion-exchange, size exclusion chromatography)) MDHLPIFCQLRDRDCLIVGGGDVAERKARLLLEAGARLTVNALTFIPQFTVWANEGMLTLVEGPFDETLLDSCWLAIAATDDDTVNQRVSDAAESRRIFCNVVDAPKAASFIMPSIIDRSPLMVAVSAGGTSPVLARLLREKLESLLPQHLGQVARYAGQLRARVKKQFATMGERRRFWEKFFVNDRLAQSLANADEKAVNATTERLFSEPLDHRGEVVLVGAGPGDAGLLTLKGLQQIQQADIVVYDRLVSDDIMNLVRADADRVFVGKRAGYHCVPQEEINQILLREAQKGKRVVRLKGGDPFIFGRGGEELETLCHAGIPFSVVPGITAASGCSAYSGIPLTHRDYAQSVRLVTGHLKTGGELDWENLAAEKQTLVFYMGLNQAATIQEKLIAFGMQADMPVALVENGTSVKQRVVHGVLTQLGELAQQVESPALIIVGRVVALRDKLNWFSNH",binds
9,"P133G/S128A CysG (enzyme, source: E. coli LMG194 (pBAD vector), purified (Ni-NTA, anion-exchange, size exclusion chromatography)) MDHLPIFCQLRDRDCLIVGGGDVAERKARLLLEAGARLTVNALTFIPQFTVWANEGMLTLVEGPFDETLLDSCWLAIAATDDDTVNQRVSDAAESRRIFCNVVDAPKAASFIMPSIIDRSPLMVAVSAGGTSGVLARLLREKLESLLPQHLGQVARYAGQLRARVKKQFATMGERRRFWEKFFVNDRLAQSLANADEKAVNATTERLFSEPLDHRGEVVLVGAGPGDAGLLTLKGLQQIQQADIVVYDRLVSDDIMNLVRRDADRVFVGKRAGYHCVPQEEINQILLREAQKGKRVVRLKGGDPFIFGRGGEELETLCHAGIPFSVVPGITAASGCSAYSGIPLTHRDYAQSVRLVTGHLKTGGELDWENLAAEKQTLVFYMGLNQAATIQEKLIAFGMQADMPVALVENGTSVKQRVVHGVLTQLGELAQQVESPALIIVGRVVALRDKLNWFSNH",binds
